Laboratory results reported in the supplement of paper PMC9170038.

Test system: MS2 coat protein
Experiment: apparent KD of MS2 coat protein; higher = weaker reporter binding
Settings: Eterna round: R107
Procedure, shortened: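 Designed RNA switches were transcribed on-chip from Illumina sequencing clusters. They were then titrated with SNAP-549-labelled MS2 coat protein (twofold steps, 0.7 or 1.5 nM to 3 µM; 0.8–1.5 h to 10–20 min per step) in 100 mM Tris-HCl pH 7.5, 80 mM KCl, 4 mM MgCl2, without or with constant ligand. Apparent KD is the per-design median of normalised cluster binding-curve fits.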

[1] = input ligand: theophylline 20 uM
[2] = input ligand: theophylline 2 mM
[3] = input ligand: tryptophan 2.4 mM

Sequence | apparent KD of MS2 coat protein (input ligand: arginine 13.2 mM) [nM] | apparent KD of MS2 coat protein (input ligand: none) [nM] | apparent KD of MS2 coat protein [1] [nM] | apparent KD of MS2 coat protein [2] [nM] | apparent KD of MS2 coat protein [3] [nM]
UGGGUUGGACCAGGAAAUGGUCUGACGCACCGAGGACCGGUACGGCCGCCACUCGGCCGUACAUGAGGAUCACCCAUGUCGGUGU [#1 Same State - Tryptophan A Attempt #13 (HarryS)] | 107 | 376 | 486 | 1170 | 740
UGGUACAUGAGGAUCACCCAUGUUCCAGAUACCAGAUACCCGGUUAUCCCUUGGCAGCUGGUGUUACAUGAGGAUCACCCAUGUU [Exclusion Theophylline A GF16] | 23.9 | 30.4 | 46 | 81.9 | 37.2
UGGUACAUGGCGGCCGCCACUUCACGUAAAAUAAAAGCUUGAGGAUCACCCAAGUAAUAAGUUGGGAGGACCGGGUCAUGUACCU | 19.2 | 19.8 | 27 | 24.7 | 16.6
UGGUAUGUAGGAAGGAGCGCAUACUUCACAUGAGGAUCACCCAUGUCGAGACGUGAGUCAGUGCAGGUAGGUCGCCUAGUUAUGA [Same State - Arginine B (Freestyle 22)] | 35.8 | 43 | 33.4 | 28.1 | 29
UGGUCCGUCGGAAGGAGCGACAUGAGGAUCACCCAUGUCUCCCGUUAUGGGAGUUCUUUAGGUCAGGUAGGUCGCCGGCGGGUCA [#1 Exclusion - Arginine B Attempt #12 (Inspired by Omei)] | 91.6 | 111 | 209 | 220 | 144
UGGUUUGUGAUGGAUACCAGCAGAGAAAACGUUUAUCCUAACAUGAGGAUCACCCAUGUAUGCCCUUGGCAGCUGUUGUGGGCUA [8.S] | 27.5 |  | 37.4 |  | 28.8
UGUAAUGGGAUCAACCCAUGAGAGUCUGAAGGAGCGAUCGUAAGAUCAGGUAGGUCGCGGGAGACAUGAGGAUCACCCAUGUAUA [#23 Exclusion - Arginine A] | 27.2 | 41 | 46.3 | 44.3 | 39.7
UGUACCUAGUCGGCCGCCACUCCAAAAGGAGAGGAUCACCCUCCUAAACGAGUCAAAGACUCGAGGAGGACCGGGACUAGGUACU [Palindromic MS2 #AlternativeMS2 #Palindrome #StaticStem] | 30 | 30.4 | 41.8 | 33.9 | 14
UGUACUAUGUGAAGGAGCGAGAAUCCUACAUGAGGAUCACCCAUGUAAGAGCGAAAGCUCACUCAGGUAGGUCGCACAUAGUACU [#17 Same State - Arginine B] | 31.7 | 42.9 | 44.1 | 43.7 | 48.8
UGUAUGGACUGAAGGAGCGCCUCAAAAUAACAUGAGGAUCACCCAUGUAAGGCGAAAGCCGGGCAGGUAGGUCGCAGUCCAUACU [ArgBX 3 #StaticStem #MS2Late] | 15.8 | 11.2 | 16.1 | 17 | 12.7
UGUAUGGACUGAAGGAGCGCCUCAAAAUAACAUGAGGAUCACCCAUGUGGCGAAAGCCAAGGGCAGGUAGGUCGCAGUCCAUACU [ArgBX 4 #StaticStem #MS2Late] | 27.3 | 26.4 | 34.2 | 32.9 | 32
UGUAUGGACUGAAGGAGCGGGUAAUAAAUCUGAGGAUCACCCAGGUAAUAGGCGAAAGCCGCCCAGGUAGGUCGCAGUCCAUACU | 13.3 | 14.7 | 27.5 | 18.8 | 23.1
UGUAUGGACUGAAGGAGCGGGUUGAUAACAUGAGGAUCACCCAUGUAAAAGGCGAAAGCCGCCCAGGUAGGUCGCAGUCCAUACU | 4.19 | 10.1 | 19.5 | 13.1 | 10.9
